Results published in PMC4471362.

Substrate: Nc1ncnc2c1ncn2[C@@H]1O[C@H](COP(=O)(O)OP(=O)(O)OP(=O)(O)O)[C@@H](O)[C@H]1O
Experiment: purified protein
Conditions: basal ATPase, 0.4 μM protein, 10 mM HEPES-KOH pH 7.5, 100 mM KCl, 2 mM MgCl2, 0.5 mM DTT, kcat unit as printed

B1: PfHsp70-z (Plasmodium falciparum 3D7) (protein)
chain: MSVLGIDIGNDNSVVATINKGAINVVRNDISERLTPTLVGFTEKERLIGDSALSKLKSNYKNTCRNIKNLIGKIGTDVKDDIEIHEAYGDLIPCEYNYLGYEVEYKNEKVVFSAVRVLSALLSHLIKMAEKYIGKECKEIVLSYPPTFTNCQKECLLAATKIINANVLRIISDNTAVALDYGMYRMKEFKEDNGSLLVFVNIGYANTCVCVARFFSNKCEILCDIADSNLGGRNLDNELIKYITNIFVNNYKMNPLYKNNTPELCPMGTGRLNKFLVTSTASDQQNGINNKVRIKLQEVAIKTKKVLSANNEASIHVECLYEDLDCQGSINRETFEELCSNFFLTKLKHLLDTALCISKVNIQDIHSIEVLGGSTRVPFIQNFLQQYFQKPLSKTLIADESIARGCVLSAAMVSKHYKVKEYECVEKVTHPINVEWHNINDASKSNVEKLYTRDSLKKKVKKIVIPEKGHIKLTAYYENTPDLPSNCIKELGSCIVKINEKNDKIVESHVMTTFSNYDTFTFLGAQTVTKSVIKSKDEKKKADDKTEDKGEKKDAKDQEQNDDKDQTNDNNMNEKDTNDKKEKNNETNSPNKTELKKGEEGKVQTCYTTIPIETLLAQGSYSSKDIFNFSEQEINMQHSDILEGERLKHLNELETIIYESRSRLNGIYKNFVMDDERDRILLSLDDYENWLYDNIEENKNMFIKKKEEIRDLIKNIVQKFDVYNSKQQNLGNIINHLNNIITQCSNKPSDESQNIINRTTKFLNNINSLQEQEKNKPLYEPPVYTLNDIEAEFNEVTQLAQKFFSKLEVEELAKQKAKQEKEKEKEKEKEKEKEKEKNEETNLDANEEQNNEAKNNEEKENSTKNENSANPEE
  Km: 283 (+/-3) μM
  Vmax: 0.0198 µmol/min/mg
